The target in the assay is T1, hCLL-1 on U937 human AML cells (human, UniProt Q5QGZ9 1-265).
T1 sequence (looked up): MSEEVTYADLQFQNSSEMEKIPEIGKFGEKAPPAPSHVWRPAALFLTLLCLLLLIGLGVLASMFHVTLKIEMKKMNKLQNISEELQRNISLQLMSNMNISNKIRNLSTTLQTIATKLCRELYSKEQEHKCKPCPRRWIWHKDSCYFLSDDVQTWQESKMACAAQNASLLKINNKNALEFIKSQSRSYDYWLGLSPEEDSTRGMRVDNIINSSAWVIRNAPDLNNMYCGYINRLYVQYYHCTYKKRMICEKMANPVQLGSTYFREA
Put plainly: cell-based or functional assay.

B1: DAR2-ARC-ADC (DAR2-ARC-IgG conjugated with 2'-Cl-araNAD+-MMAF) (antibody)
heavy: not shown
light: ENVLTQSPAIMSASPGEKVTMTCRASSNVISSYVHWYQQRSGASPKLWIYSTSNLASGVPARFSGSGSGTSYSLTISSVEAEDAATYYCQQYSGYPLTFGAGTKLELKRAAAAPSVFIFPPSDEQLKSGTASVVCLLNNFYPREAKVQWKVDNALQSGNSQESVTEQDSKDSTYSLSSTLTLSKADYEKHKVYACEVTHQGLSSPVTKSFNRGEC
modifications: 2'-Cl-arabinose-ADP-MMAF on Glu226 of the CD38 domain (CD38 numbering)
For B1, the “in vitro cytotoxicity EC50 on U937 (CLL-1+) cells (MTT, 72 hours)” value was found to be 0.9 nM.
